Changes are numbered by the printed parent chain. One block for each binder: values may come before it.
Biological target: T1, human CD115 extracellular domain (Sino Biological 10161-H08H) (human, UniProt P07333 20-517)
T1 construct: extracellular domain; bought recombinant protein; also called huCD115; hu-CD115
Test: ELISA, supernatant on huCD115

- binding result: binds
B7: CCL-226A (antibody, V domains shown)
VH: QVQLQESGPGLVKPSETLSLTCTVSGASISSYYWSWIRQPPGKGLEWIGYFYYSGSTNYSPSLKSRVTFSVDTSKNQFSLKLSSVTAADTAVYFCARGKVGVPFDYWGQGTLVTVSS
VL: not shown
notes: AlivaMab chimeric IgG, human lambda LC

- binding result: binds
B8: CCL-235A (antibody, V domains shown)
VH: QVQLQESGPGLVKPSETLSLTCTVSGGSISSYYWSWIWQPAGKGLEWIGRIYTSGSTNYNPSLKSRVTMSVDTPKNQFSLKLSSVTAADTAVYYCARERLTGAFDIWGQGTMVTVSS
VL: not shown
notes: as for B7

- binding result: binds
B9: CCL-339A (antibody, V domains shown)
VH: QVQLQESGPGLVKPSETLSLTCTVSGGSISSNYWSWIRQPAGKGLEWIGRIYTSGSTKYNPSLKSRVTMSVDTSKNQFSLKLSSVTAADTAVYYCAREGIVGAFHYWGQGALVTVSS
VL: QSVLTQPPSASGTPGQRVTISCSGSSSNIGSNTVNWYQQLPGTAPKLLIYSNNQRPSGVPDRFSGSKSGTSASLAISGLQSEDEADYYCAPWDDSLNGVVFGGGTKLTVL
notes: as for B7

- binding result: binds
B10: CCL-322A (antibody, V domains shown)
VH: B9 VH with N32Y, T57I, T68A, V101L, A103Y, H105D, A111T
VL: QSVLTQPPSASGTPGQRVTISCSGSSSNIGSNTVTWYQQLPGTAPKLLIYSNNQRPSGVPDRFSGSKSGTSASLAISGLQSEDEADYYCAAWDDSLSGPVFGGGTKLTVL
notes: as for B7

- binding result: binds
B11: CCL-301A (antibody, V domains shown)
VH: B8 VH with W38R, S56Y, T68S, P74S, T101G, G102A, A103F, I106Y, M112L
VL: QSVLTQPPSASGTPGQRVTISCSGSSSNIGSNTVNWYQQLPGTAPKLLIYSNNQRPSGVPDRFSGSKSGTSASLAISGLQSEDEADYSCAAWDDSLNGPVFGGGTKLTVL
notes: as for B7

- binding result: binds
B12: CCL-344A (antibody, V domains shown)
VH: B8 VH with W38R, P74S, T101G, G102M, A103F, I106Y, M112L
VL: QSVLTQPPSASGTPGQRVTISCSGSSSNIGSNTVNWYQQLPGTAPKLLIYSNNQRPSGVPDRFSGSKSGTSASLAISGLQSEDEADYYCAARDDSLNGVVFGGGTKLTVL
notes: as for B7

- binding result: binds
B13: CCL-320A (antibody, V domains shown)
VH: QVQLQESGPGLVKPSETLSLTCTVSVGSISSYYWSWIRQPAGKGLEWIGRIYASGSTNYNPSLKSRVTMSVDTSKNQFSLKLTSVTAADTAVYYCARERVGIYFDYWGQGTLVTVSS
VL: not shown
notes: as for B7

- binding result: binds
B14: CCL-253A (antibody, V domains shown)
VH: B8 VH with W38R, P74S, V85M, E98D, T101G, G102R
VL: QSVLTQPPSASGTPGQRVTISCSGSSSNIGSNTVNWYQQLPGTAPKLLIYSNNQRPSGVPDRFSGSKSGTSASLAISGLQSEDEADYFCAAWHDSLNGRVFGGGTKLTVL
notes: as for B7

- binding result: binds
B15: CCL-341A (antibody, V domains shown)
VH: B13 VH with V26G, A53T, T83S, V100L, I102M, Y103F
VL: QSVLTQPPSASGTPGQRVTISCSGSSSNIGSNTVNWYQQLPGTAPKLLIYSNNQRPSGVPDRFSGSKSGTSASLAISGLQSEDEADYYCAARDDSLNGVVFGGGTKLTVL
notes: as for B7

- binding result: binds
B16: CCL-303A (antibody, V domains shown)
VH: QVQLQESGPGLVKPSETLSLTCTVSGGSISSYYWSWIRQPPGKGLEWIGYIYYSGSTNYNPSLKSRVTISVDTSKNQFSLKLSSVTAADTAVFYCARITVTSAFDIWGQGTMVTVSS
VL: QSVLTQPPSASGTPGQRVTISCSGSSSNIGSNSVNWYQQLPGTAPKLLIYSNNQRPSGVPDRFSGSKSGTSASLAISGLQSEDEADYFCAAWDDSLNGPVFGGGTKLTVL
notes: as for B7

More lines, now with the values behind:

B1: CCL-314A (antibody, V domains shown)
VH: QVQLQESGPGLVKPSETLSLTCTVSGGSISSYYWSWIRQPAGKGLEWIGRIYASGGTNYNPSLKSRVTMSVDTSKNQFSLKVSSVIAADTAIYYCARNRLGIYDYWGQGSLVTVSS
VL: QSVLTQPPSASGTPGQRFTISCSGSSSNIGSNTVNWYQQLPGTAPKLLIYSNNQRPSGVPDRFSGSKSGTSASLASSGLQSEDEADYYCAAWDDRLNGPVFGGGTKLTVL
notes: as for B7
- binding result: binds

B2: CCL-311A (antibody, V domains shown)
VH: EVQLVQSGAEVKKPGESLKISCKGSGYSFTNYWIGWVRQMPGKGLEWMGIIYPGDSDTRYSPSFQGQVTISADISITTAYLQWSSLKASDTAMYYCARHRLGFFDYWGQGTLVTVSS
VL: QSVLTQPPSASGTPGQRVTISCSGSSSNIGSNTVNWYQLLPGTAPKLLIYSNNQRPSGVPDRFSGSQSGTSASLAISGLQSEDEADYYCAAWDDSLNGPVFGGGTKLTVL
notes: as for B7
- binding result: binds

B3: CCL-315A (antibody, V domains shown)
VH: QVQLQESGPGLVKPSETLSLTCTVSGGSISSYYWSWIRQSPGKGLEWIGYIYYSGSTNYNPSLKSRVTISVDTSKNQFSLKLSSVTAADTAVYFCARALLTGGFAYWGQGTLVTVSS
VL: not shown
notes: as for B7
- binding result: binds

B4: CCL-223A (antibody, V domains shown)
VH: QVQLQESGPGLVKPSETLSLTCTVSGGSISSYYWSWIRQPAGKGLEWIGRIYTSGSTNYNPSLKSRVSMSVDTSKNQFSLKLSSVTAADTAVYYCARERIIWFDPWGQGTLVTVSS
VL: not shown
notes: as for B7
- binding result: binds

B5: CCL-220A (antibody, V domains shown)
VH: B4 VH with W47G, S68T, I100L, I101Y, W102G, F103M, P105V, L111T
VL: not shown
notes: as for B7
- binding result: binds

B6: CCL-207A (antibody, V domains shown)
VH: B4 VH with S56T, S68T, S83N, I100V
VL: not shown
notes: as for B7
- binding result: binds

— US20180258175A1 (ABLEXIS, published 2018)
